Several values for one entry are separate records, joined by “and”; a condition that tells them apart may be missing. Identical values can stand only once.
Tests used:
[1] = target: SARS-CoV-2 South African Δ3 B.1.351 variant (pseudovirus RVP-724) (SARS-CoV-2) (UniProt P0DTC2); assay: cell-based or functional assay
[2] = target: SARS-CoV-2 N439K variant (pseudovirus RVP-703) (SARS-CoV-2) (UniProt P0DTC2); assay: cell-based or functional assay

**Q.** Which results are given for REGN10987 (antibody)?
**A.** EC50 (pM) Neutralization, South Africa B.1.351 [1]: 2.48 pM and 2.37 pM; EC50 (pM) Neutralization, N439K [2]: 2260 pM and 2220 pM; pseudovirus neutralization, potency against REGN10933 [2]: 1000 fold

From patent US20250092160A1
